2 substances from publication PMC11573500 can be followed below.

Test [1] addresses dephosphorylated wild-type human CFTR (human) (UniProt P13569). Kind of test: cryo-EM structure; 30 uM dephosphorylated wild-type CFTR in digitonin, 250 uM bPKA-C, 2 mM AMP-PNP/Mg2+; 200 mM NaCl, 20 mM HEPES pH 7.4, 1 mM DTT.
Test [2] has as its target CFTR D58A expressed in Xenopus laevis oocytes (human) (UniProt P13569).
In test [3] the target is CFTR E51A expressed in Xenopus laevis oocytes (human) (UniProt P13569).
The target in test [4] is CFTR D47A expressed in Xenopus laevis oocytes (human) (UniProt P13569).
Test [5] has as its target phosphorylated human CFTR E1371Q (human) (UniProt P13569). In words: cryo-EM structure; phosphorylated E1371Q CFTR (~5 mg/mL) in digitonin with PKA-C (~10 mg/mL), 3 mM ATP/Mg2+; 200 mM NaCl, 20 mM HEPES pH 7.4, 1 mM DTT.
The target of test [6] is dephosphorylated human CFTR E1371Q (human) (UniProt P13569). In words: cryo-EM structure; 30 uM dephosphorylated E1371Q CFTR in digitonin, 250 uM bovine PKA-C, 1 mM P-ATP/Mg2+ and 1 mM AMP-PNP/Mg2+; 200 mM NaCl, 20 mM HEPES pH 7.4, 1 mM DTT.
In test [7] the target is WT CFTR expressed in Xenopus laevis oocytes (human) (UniProt P13569).

Where “and” joins values, the source holds several entries; their conditions need not be identical. Identical values can stand only once.

“protein kinase A catalytic subunit purified from bovine heart (from UniProt P00517 1-351) (enzyme)”: the stoichiometry N (PKA-C per CFTR) in test [1] was 1 and 2; in test [5], 1; in test [6], 1. Further, the half-time (t1/2) of macroscopic current activation by 300 nM bPKA-C in 2 mM ATP, relative to WT CFTR in test [2], in test [3] and in test [4] was 2 fold each time.
“recombinant bovine PKA-C, wild type (from UniProt P00517 1-351) (enzyme)” came in with a half-time (t1/2) of current activation by 300 nM rPKA-C in 2 mM ATP, relative to 300 nM bPKA-C on WT CFTR in test [7] of 6 fold.
